# Results from publication PMC10136559, “An Aptamer That Rapidly Internalizes into Cancer Cells Utilizes the Transferrin Receptor Pathway”.
# Columns and labels:
# [1] = molecular target: mouse transferrin receptor (mTfR) (Mus musculus, UniProt Q62351 89-763); experiment: bead-based flow cytometry; 200 nM aptamer; SB1T: 40 mM HEPES, 125 mM NaCl, 5 mM KCl, 1 mM MgCl2, 1 mM CaCl2, 0.05% Tween20, 1 mg/mL salmon sperm DNA; 37 °C, 30 min; pH not stated; conditions: protein: recombinant, chain copies: 2, label: 5' DyLight 650 via thiol C6
# Sequence of mouse transferrin receptor (mTfR) (Q62351 89-763): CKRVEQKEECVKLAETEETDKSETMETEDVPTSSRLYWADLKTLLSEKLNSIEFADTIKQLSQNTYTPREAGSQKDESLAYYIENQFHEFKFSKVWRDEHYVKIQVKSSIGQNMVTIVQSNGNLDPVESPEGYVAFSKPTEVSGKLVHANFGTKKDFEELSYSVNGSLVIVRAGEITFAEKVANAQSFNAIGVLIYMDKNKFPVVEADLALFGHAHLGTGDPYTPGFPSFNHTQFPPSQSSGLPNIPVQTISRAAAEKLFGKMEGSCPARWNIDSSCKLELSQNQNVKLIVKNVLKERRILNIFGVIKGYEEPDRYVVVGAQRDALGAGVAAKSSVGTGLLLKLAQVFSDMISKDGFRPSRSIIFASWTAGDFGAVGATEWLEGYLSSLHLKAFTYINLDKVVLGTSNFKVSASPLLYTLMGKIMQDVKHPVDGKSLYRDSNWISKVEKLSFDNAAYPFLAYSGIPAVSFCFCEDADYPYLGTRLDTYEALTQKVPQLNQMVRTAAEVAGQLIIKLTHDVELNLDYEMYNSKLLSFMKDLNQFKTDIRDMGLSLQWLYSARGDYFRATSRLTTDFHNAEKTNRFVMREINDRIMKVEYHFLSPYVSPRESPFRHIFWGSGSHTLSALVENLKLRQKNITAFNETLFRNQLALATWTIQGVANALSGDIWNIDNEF
# [2] = molecular target: T1, human transferrin receptor 1 (hTfR) (Homo sapiens, UniProt P02786 89-760); experiment: bead-based flow cytometry; apparent Kd; SB1T: 40 mM HEPES, 125 mM NaCl, 5 mM KCl, 1 mM MgCl2, 1 mM CaCl2, 0.05% Tween20, 1 mg/mL salmon sperm DNA; 37 °C, 30 min; pH not stated; conditions: protein: recombinant, tags: His, chain copies: 2, label: 5' DyLight 650 via thiol C6
# T1 sequence (P02786 89-760): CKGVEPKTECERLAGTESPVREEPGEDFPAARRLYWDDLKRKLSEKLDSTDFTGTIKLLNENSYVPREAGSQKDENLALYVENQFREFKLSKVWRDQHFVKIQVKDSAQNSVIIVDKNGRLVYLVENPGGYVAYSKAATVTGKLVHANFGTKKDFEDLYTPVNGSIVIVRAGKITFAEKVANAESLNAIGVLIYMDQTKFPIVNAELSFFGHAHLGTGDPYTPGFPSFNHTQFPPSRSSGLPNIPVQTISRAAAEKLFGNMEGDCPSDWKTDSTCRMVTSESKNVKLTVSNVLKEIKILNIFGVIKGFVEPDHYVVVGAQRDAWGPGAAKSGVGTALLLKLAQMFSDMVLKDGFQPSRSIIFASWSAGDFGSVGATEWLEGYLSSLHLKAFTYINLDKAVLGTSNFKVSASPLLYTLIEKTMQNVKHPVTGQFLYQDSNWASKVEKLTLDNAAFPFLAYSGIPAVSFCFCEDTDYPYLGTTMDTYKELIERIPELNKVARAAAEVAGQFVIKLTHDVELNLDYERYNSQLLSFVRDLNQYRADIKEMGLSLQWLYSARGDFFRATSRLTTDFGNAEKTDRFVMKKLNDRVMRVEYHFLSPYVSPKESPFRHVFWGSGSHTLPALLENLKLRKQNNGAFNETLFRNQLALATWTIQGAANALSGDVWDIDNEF
# [3] = molecular target: T1, human transferrin receptor 1 (hTfR); experiment: bead-based flow cytometry; apparent Kd; 0-100 nM aptamer range; SB1T: 40 mM HEPES, 125 mM NaCl, 5 mM KCl, 1 mM MgCl2, 1 mM CaCl2, 0.05% Tween20, 1 mg/mL salmon sperm DNA; 37 °C, 30 min; pH not stated; conditions: protein: recombinant; tags: His; chain copies: 2; label: 5' DyLight 650 via thiol C6
# [4] = hairpin with bulge and loop (predicted)
binder,measurement,setting,value
"GGCUUUCGGGCUUUCGGCAACAUCAGCCCCUCAGCC (XNA, 2'-fluoro pyrimidines; 3' inverted dT) [E3 (DL650-E3)]",binding result,[1]; [4],no binding
same,Kd,[2]; [4],4.23 nM
"GGGGGAUCAAUCCAAGGGACCCGGAAACGCUCCCUUACACCCC (XNA, 2'-fluoro pyrimidines; 3' inverted dT) [C2.min (DL650-C2.min)]",Kd,[2],7.44 nM
"GGGUUCUACGAUAAACGGUUAAUGACCAGCUUAUGGCUGGCAGUUCCC (XNA, 2'-fluoro pyrimidines; 3' inverted dT) [Waz (DL650-Waz)]",binding result,[1],no binding
same,Kd,[3],22.1 nM
"GGCGUAGUGAUUAUGAAUCGUGUGCUAAUACACGCC (XNA, 2'-fluoro pyrimidines; 3' inverted dT) [C36 (DL650-C36)]",binding result,[1],no binding
